According to article doi:10.1101/2024.07.10.602929 (2024):
Where no end group is shown, it is not given here. The star is where a group is joined. Biotin = O=C1N[C@H]2[C@H](CS[C@H]2CCCCC(=O)*)N1

What was measured:
Test in all cases: BLI
[1] = target: LC3A (human, UniProt Q9H492 1-121)
[2] = target: GABARAPL2 (human, UniProt P60520 1-117)
[3] = target: LC3B (human, UniProt Q9GZQ8 1-120)
[4] = target: 1 (human, UniProt Q9H0R8 1-117)
[5] = target: GABARAP (γ-aminobutyric acid type A receptor-associated protein) (human, UniProt O95166 1-117)
GABARAP (γ-aminobutyric acid type A receptor-associated protein), sequence (O95166 whole entry): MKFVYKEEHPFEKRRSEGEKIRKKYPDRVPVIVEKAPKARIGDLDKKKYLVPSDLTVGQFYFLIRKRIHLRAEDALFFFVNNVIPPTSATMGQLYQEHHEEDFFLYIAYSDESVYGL

GABARAPL2, sequence (P60520 whole entry): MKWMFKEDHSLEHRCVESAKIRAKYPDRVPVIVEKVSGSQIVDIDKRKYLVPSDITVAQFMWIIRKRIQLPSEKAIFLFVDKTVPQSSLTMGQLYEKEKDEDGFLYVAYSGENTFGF
1, sequence (Q9H0R8 whole entry): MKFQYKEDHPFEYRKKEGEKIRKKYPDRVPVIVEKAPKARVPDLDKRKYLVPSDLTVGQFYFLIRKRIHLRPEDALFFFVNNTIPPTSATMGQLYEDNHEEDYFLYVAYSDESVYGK

| Kd [1] [µM] | Kd [2] [µM] | Kd [3] [µM] | Kd [4] [µM] | Kd [5] [µM] | Binder |
| --- | --- | --- | --- | --- | --- |
| 231 | 105 | 435 | 21.6 |  | Biotin-ALTEDSIDDTFLPVPEYINQSVPK [EGFR LIR1 peptide (EGFR residues 1076–1099), N-terminally biotinylated] |
| 648 | 146 | 1460 | 48 | 304 | Biotin-STAENAEYLRVAPQSSEFIGA [EGFR LIR2 peptide (EGFR residues 1190–1210), N-terminally biotinylated] |
| 118 | 15 | 369 |  | 3.7 | Biotin-ISQKSDEEDFVKVED [PCM1 LIR peptide (pericentriolar material 1 protein residues 1954-1968), N-terminally biotinylated] |
